Here are results for ten molecules from patent publication US20090169562A1 (CRUCELL HOLLAND B V, published 2009).

Test [1] has as its target T1, bovine serum albumin (BSA) (bovine, UniProt P02769 25-607).
T1 construct: Control antigen coated at 1% in PBS (pH 7.4); also called negative control antigen
The test is described as follows: phage ELISA, BSA coated. The procedure: (§1) Selected single-chain phage antibodies that were obtained in the screens described above were validated in ELISA for specific enterococcal binding activity, i.e. binding to one or more enterococcal strains prepared as described supra. 2.5×10⁸ bacteria were coated overnight at 4° C. to Maxisorp™ ELISA plates in 50 μl 50 mM carbonate buffer, pH 9.6. As negative controls, the complex antigens 2% ELK and 1% BSA both in PBS (pH 7.4) were coated. Wells were washed in PBS containing 0.1% (v/v) Tween-20 and blocked with 300 μl PBS containing 2% ELK for at least 1 hour at room temperature. The selected single-chain phage antibodies were incubated for 15 minutes in an equal volume of PBS containing 2% ELK to obtain blocked phage antibodies. The plates were emptied and the blocked single-chain phage antibodies were added to the wells. Incubation was allowed to proceed for one hour at room temperature, the plates were washed in PBS containing 0.1% (v/v) Tween-20 and bound phage antibodies were detected using an anti-M13 antibody conjugated to peroxidase. Absorbance at 492 nm was measured using a spectrophotometer. As a control, the procedure was performed simultaneously without single-chain phage antibody and with a negative control single-chain phage antibody directed against West Nile virus envelope protein (SC04-374).
Background: An ELISA detects its analyte on a solid surface through an enzyme-linked reagent.

Test [2] addresses T1, bovine serum albumin (BSA). The test is described as follows: phage ELISA, 1% BSA coated, anti-M13-HRP detection. The procedure: as §1

T1 sequence (P02769 25-607 limits assumed): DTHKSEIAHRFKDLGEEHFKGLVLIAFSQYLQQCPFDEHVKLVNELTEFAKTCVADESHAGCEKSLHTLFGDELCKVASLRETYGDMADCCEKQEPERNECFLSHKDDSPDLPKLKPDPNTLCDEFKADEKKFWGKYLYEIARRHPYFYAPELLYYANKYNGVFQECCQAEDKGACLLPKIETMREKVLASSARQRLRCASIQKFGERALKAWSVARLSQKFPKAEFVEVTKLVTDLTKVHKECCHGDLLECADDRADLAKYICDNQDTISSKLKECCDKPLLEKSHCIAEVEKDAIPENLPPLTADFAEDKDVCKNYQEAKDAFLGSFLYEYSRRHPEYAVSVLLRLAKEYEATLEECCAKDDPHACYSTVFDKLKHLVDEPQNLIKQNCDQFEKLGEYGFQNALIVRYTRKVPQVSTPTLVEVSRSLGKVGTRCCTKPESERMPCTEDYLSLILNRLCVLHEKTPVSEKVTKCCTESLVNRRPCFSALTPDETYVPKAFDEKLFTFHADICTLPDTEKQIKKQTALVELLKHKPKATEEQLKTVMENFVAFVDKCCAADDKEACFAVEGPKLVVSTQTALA

B1: SC06-016 (scFv)
scFv: QVQLVQSGPEVKKPGASVTVSCKASGYSFSSYGISWVRQAPGQGLEWMGRIIPVGGNTLYSQMFQGRVTMTSDTSTSTVYLELSSLRSEDTAVYFCARDGGRWQFDYWGQGTLVTVSSGTGGSGGTGSGTGGSTDIQLTQSPSSVSASVGDRVTITCRASQGISNWLAWYQQKPGKAPELLIYAASSLQSGVPPRFSGSASGTDFTLTISSLQPEDFATYYCQQSKNFPYTFGQGTKVEIK
notes: Vl 135-241); also called single-chain phage antibody SC06-016
With B1, the binding result in test [1] is recorded as “no binding”. The OD492 nm in test [2] was determined as 0.044 OD492 nm.

B2: SC06-415 (scFv)
scFv: EVQLVESGGGLVQPGRSLRLSCAASGFTFDDYAMHWVRQAPGKGLEWVSGISWNSGSIGYADSVKGRFTISRDNAKNSLYLQMNSLRAEDSAVYYCARGGQRFDFWGQGTLVTVSSGTGGSGGTGSGTGGSTQSALTQPPSASGSPGQSVTISCTGTSSDVGGYNYVSWYQQLPGKAPKLLIYDVNNRPSGVSNRFSGSKSGNTASLTISGLQAEDEAEYYCGSSVGSRLRIFGGGTKLTVL
notes: Vl 133-242); also called single-chain phage antibody SC06-415
B2: in test [1], the binding result is recorded as “no binding”. Further, the OD492 nm in test [2] came to 0.044 OD492 nm.

B3: SC05-179 (scFv)
scFv: EVQLVESGGGLVKPGGSLGLSCAASGFFFSDYSMSWIRQAPGKGLEWLSNISGSGHSTKYAESMRGRITISRDNAKKSLSLQLNSLRAEDTAVYFCVRGGGYRMDVWGQGTTVTVSSGTGGSGGTGSGTGGSTQSALTQPRSVPGSPGQSVTISCTGTSSDVGGYNYVSWYQQHPGKAPKLMIYDVSKRPSGVPDRFSGSKSGNTASLTVSGLQAEDEADYYCSSYAGSNNFVVFGGGTKLTVL
notes: Vl 134-244); also called single-chain phage antibody SC05-179
Turning to B3, in test [1], the binding result is on record as “no binding”. Besides, in test [2], the OD492 nm amounted to 0.045 OD492 nm.

B4: SC06-429 (scFv)
scFv: QVQLVQSGAEVKNPGESLKISCKGSGYTFTSYWIGWVRQMPGKGLEWMGSIYPGDSDTRYSPSFQGQVTISVDKSISTAYLQWSSLKASDTAMYYCARQYRAGSTTRFDPWGQGTLVTVSSGTGGSGGTGSGTGGSTDVVMTQSPLSLPVTPGEPASISCRSSQSLRHRNGNNYLDWYLQKPGQSPQLLIYLGSNRASGVPDRFSGSGSGTDFTLKISRVEAEDVGIYYCMQALQTPLTFGGGTKVEIK
notes: Vl 138-249); also called single-chain phage antibody SC06-429
For the molecule B4, the binding result in test [1] is on record as “no binding”. Also, in test [2], the OD492 nm amounted to 0.068 OD492 nm.

B5: SC05-159 (scFv)
scFv: QVQLVQSGAEVKKPGATVKISCKVSGYTFTDYYMHWVQQAPGKGLEWMGLVDPEDGETIYAEKFQGRVTITADTSTDTAYMELSSLRSDDTAVYYCARAEVMTTINNWYFDLWGRGTLVTVSSGTGGSGGTGSGTGGSTSYVLTQPPSASGTPGQRVTISCSGSSSNIGSNNVSWYQQLPGTAPKLLIYSNNQRPSGVPDRFSGSKSGTSASLAISGLQSEDEADYYCAAWDDSLNGWVFGGGTKLTVL
notes: Vl 140-249); also called single-chain phage antibody SC05-159
On to B5, for which the binding result in test [1] is “no binding”. The OD492 nm in test [2] was 0.06 OD492 nm.

B6: SC06-043 (scFv)
scFv: EVQLVESGAEVKKPGESLKISCKGSGYSFTSYWIGWVRQMPGKGLEWMGIIYPGDSDTRYSPSFQGQVTISADKSISTAYLQWSSLKASDTAMYYCARRYCSGGTCSDGFDIWGQGTMVTVSSGTGGSGGTGSGTGGSTQSALTQPPSASGSPGQSVTISCTGTSSDVGGYNYVSWYQQHPGKAPKLMIYEVSKRPSGVPDRFSGSKSGNTASLTVSGLQAEDEADYYCSSYAGSNNLVFGGGTKLTVL
notes: Vl 140-249); also called single-chain phage antibody SC06-043
For B6, the binding result in test [1] was “no binding”. Also, the OD492 nm in test [2] came out at 0.045 OD492 nm.

B7: SC06-049 (scFv)
scFv: QVQLVQSGAEVKKPGESLKISCKGSGYSFTSYWIGWVRQMPGKGLEWMGIIYPGDSDTRYSPSFQGQVTISADKSIGTAYLQWSSLKASDTAMYYCARLFRVRGGHFDSWGQGTLVTVSSGTGGSGGTGSGTGGSTQSALTQPASVSGSPGQSITISCTGTNSDVGGYNYVSWYQQHPGKAPKLLIYDVTNRPSGVSNRFSASKSGNTASLTISGLQAEDEADYYCSSFTSSSTRVFGGGTKLTVL
notes: Vl 137-246); also called single-chain phage antibody SC06-049
With B7, in test [1], the binding result was “no binding”. Also, the OD492 nm in test [2] was 0.042 OD492 nm.

B8: SC06-409 (scFv)
scFv: EVQLVQSGAEVKKPGESLKISCKGSGYSFTNYWIGWVRQMPGKGLEWMGIIYPGDSDTRYSPSFQGQVTISADKSISTAYLQWSSLKASDTAMYYCARHTQNKNGMNTFDIWGQGTMVTVSSGTGGSGGTGSGTGGSTQSALTQPPSASGSPGQSVTISCTGTSSDIGGYNYVSWYQQHPGKAPKLMIYEVSNRPPGVSNRFSGSKSGNTASLTISGLQAEDEADYYCSSYSTTTTRVIFGGGTKLTVL
notes: Vl 139-249); also called single-chain phage antibody SC06-409
On to B8, for which, in test [1], the binding result is given as “no binding”. Moreover, the OD492 nm in test [2] turned out to be 0.055 OD492 nm.

B9: SC05-187 (scFv)
scFv: EVQLVQSGAEVKKPGESLKISCKGSGYSFTKYWIGWVRQMPGKGLEWMGIIYPGDSDTRYSPSFQGQVTISADKSISTAYLQWSSLKASDTAMYYCARGSGIATGNSFDSWGQGTLVTVSSGTGGSGGTGSGTGGSTQTVVTQEPSLTVSPGGTVTLTCASSTGAVTSGYYPNWFQQKPGQAPRALIYSTSKKHSWTPARFSGSLLGGRAALTLSGAQPEDEADYYCLLSYGGARVFGGGTKLTVL
notes: Vl 138-246); also called single-chain phage antibody SC05-187
With B9, the binding result in test [1] is reported as “no binding”. The molecule also displayed an OD492 nm in test [2] of 0.055 OD492 nm.

B10: SC06-432 (scFv)
scFv: QLQLQESGPGLVKPSQTLSLTCTVSGGSISSGGYYWSWIRQHPGKGLEWIGYIYYSGSTYYNPSLKSRVTISVDTSKNQFSLKLSSVTAADTAVYYCARERILDRMNDYWGQGTLVTVSSGTGGSGGTGSGTGGSTQSVVTQPPSVSGAPGQRVTISCTGSSSNIGAGYDVHWYQQLPGTAPKLLIYGNSNRPSGVPDRFSGSKSGTSASLAITGLQAEDEADYYCQSSDSSLNILFGGGTKLTVL
notes: Vl 137-246); also called single-chain phage antibody SC06-432
As for B10, the binding result in test [1] is “no binding”. This molecule also came in with an OD492 nm in test [2] of 0.059 OD492 nm.
